Reference: US20100015126A1, “Methods of Binding of Cross-Beta Structures By Chaperones” (priority 2006, published 2010)

Columns and labels:
[1] = target: T1, BiP-Sepharose (Homo sapiens, UniProt P11021); assay: BiP-Sepharose extraction of proteins from patient plasma, serum, synovial fluid and mass-spectrometric identification; type: binding
T1 construct: The human BiP gene except the signal peptide encoding region was obtained from Geneart (Germany); linker […]; made in house; host or cells: HEK 293E cells, transient transfection, PABC674 vector; secreted into the medium
Experimental: BiP was coated on CNBr-Sepharose (GE-Healthcare, Amersham Biosciences). Immobilization of BiP was performed essentially as described elsewhere in this application for NHS-Sepharose. CNBr-matrix was dissolved at 200 mg/ml in 1 mM HCl and treated the same as the NHS-matrix, except for an additional 5 minutes activation step in 1 mM HCl on a roller device before washing in this buffer. BiP was diluted in immobilization buffer (50 mM NaCl and 40 mM NaHCO3) to a concentration of 820 μg/ml. A total volume of 2 ml BiP solution (1640 μg BiP) was incubated with 360 mg beads. Negative control matrix was exposed to immobilization buffer, only. After overnight immobilization matrix was blocked with Tris and washed.
(§1) Six samples were incubated with the BiP-Sepharose, IgIV-Sepharose and the control-Sepharose: Normal pooled plasma, plasma of a patient I or of a patient II, with AL amyloidosis, serum of a patient III with RA (Rheumatoid Factor (RF) titer 682), control serum and synovial fluid of a patient IV with RA (RF titer 23). All samples were diluted 20× in HBS and applied to 200 μl beads in two volumes of 500 μl. One volume was incubated for 4 h at RT and supernatant was discarded after centrifugation (2 minutes at 1400 rpm). Subsequently, the second volume was applied to the same matrix and incubated overnight on a roller device at 4° C. […] To collect the eluates, the matrices were centrifuged and the two eluates were pooled for each sample.
(§2) Protein digests were desalted as described (Rappsilber et al., 2003), vacuum dried and dissolved in 2.5% formic acid.
(§3) For analysis of peptide mixtures, an Agilent 1100 HPLC system (Agilent Technologies) connected to a Thermo Finnigan LTQ-MS (Thermo Electron, Bremen, Germany) was used. Protein digests were injected on a trap column (Reprosil C18 RP (Dr Maisch, Germany), 20 mm×100 μm I.D.) at 5 μl/minute. Subsequently, the peptides were transferred with a split-reduced flow rate of 100 nL/minute solvent A (0.1 M acetic acid) on the analytical column (Reprosil C18 RP, 20 cm×50 μm I.D.). […] The column effluent was directly introduced into the ESI source of the mass spectrometer via a butt-connected nano-ESI emitter (New Objectives, Woburn, Mass.). The mass spectrometer was operated in the positive ion mode and parent ions were selected for fragmentation in data-dependent mode.
(§4) After mass spectrometric measurements, peak lists were generated using BioWorks software (Thermo Electron, Bremen, Germany). Protein identification was performed using Mascot software (www.matrixscience.com) by searching the IPIhuman database (version 3.24, downloaded from ftp://ftp.ebi.ac.uk/pub/databases/IPI/current) using the following settings: fully tryptic peptides, peptide tolerance 0.8 Da, MS/MS tolerance 0.9 Da, 1 missed cleavage allowed, carbamidomethyl (Cys) and oxidation (Met) as fixed and variable modification, respectively. The Scaffold software package (www.proteomesoftware.com) was used to parse the data and to filter peptides at a confidence level of 95%, allowing only protein identification with at least 2 peptides identified.

[2] = target: T1, BiP-Sepharose; assay: Experiment 2: BiP-Sepharose extraction from six synovial fluid samples of RA patients and mass spectrometry; type: binding; conditions: BiP-Sepharose eluate, synovial fluid of RA patient
Experimental: as §1, §2, §3, §4
Those samples are listed below: • 1. […] One difference when compared to the protocol described above is that now with the twelve samples, elution buffer comprised 1 M NaCl. Again, a misfolded protein or a protein binding to misfolded protein is identified uniquely in the synovial fluid when no or a relatively very low number of fragments are detected in eluates of control-Sepharose.

[3] = Sample B3: eluate of BiP-Sepharose contacted with AL amyloidosis patient II plasma
[4] = Sample B4: eluate of BiP-Sepharose contacted with RA patient III serum

T1 sequence (P11021 19-654): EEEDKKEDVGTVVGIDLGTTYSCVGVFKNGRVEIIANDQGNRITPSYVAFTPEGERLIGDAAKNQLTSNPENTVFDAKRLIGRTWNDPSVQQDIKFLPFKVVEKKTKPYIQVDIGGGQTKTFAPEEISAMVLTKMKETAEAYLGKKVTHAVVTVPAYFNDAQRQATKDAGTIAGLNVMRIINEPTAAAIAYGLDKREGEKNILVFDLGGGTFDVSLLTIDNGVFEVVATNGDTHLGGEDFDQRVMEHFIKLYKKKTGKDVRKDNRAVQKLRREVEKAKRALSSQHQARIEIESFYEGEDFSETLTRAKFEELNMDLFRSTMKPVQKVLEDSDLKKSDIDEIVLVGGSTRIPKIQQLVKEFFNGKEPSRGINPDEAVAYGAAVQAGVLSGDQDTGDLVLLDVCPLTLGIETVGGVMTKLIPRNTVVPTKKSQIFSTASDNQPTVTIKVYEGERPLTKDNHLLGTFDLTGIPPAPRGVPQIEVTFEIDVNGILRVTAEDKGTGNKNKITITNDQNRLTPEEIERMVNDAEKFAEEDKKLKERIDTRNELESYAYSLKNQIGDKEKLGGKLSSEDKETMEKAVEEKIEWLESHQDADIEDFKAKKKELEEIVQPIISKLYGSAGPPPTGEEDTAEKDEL

B1: Complement factor H-related protein 3 precursor/Complement factor H-related 3 (FHR-3, H factor-like protein 3, DOWN16)/Complement factor H-related 3, isoform CRA_c (protein)
chain: QVKPCDFPDIKHGGLFHENMRRPYFPVAVGKYYSYYCDEHFETPSGSYWDYIHCTQNGWSPAVPCLRKCYFPYLENGYNQNYGRKFVQGNSTEVACHPGYGLPKAQTTVTCTEKGWSPTPRCIRVRTCSKSDIEIENGFISESSSIYILNKEIQYKCKPGYATADGNSSGSITCLQNGWSAQPICINSSEKCGPPPPISNGDTTSFLLKVYVPQSRVEYQCQPYYELQGSNYVTCSNGEWSEPPRCIHPCIITEENMNKNNIKLKGRSDRKYYAKTGDTIEFMCKLGYNANTSILSFQAVCREGIVEYPRCE
# of peptides in sample A# [1, 3]: 1

B2: Immunoglobulin heavy constant gamma 3 (G3m marker)/Ig gamma-3 chain C region (Heavy chain disease protein, HDC) (protein)
chain: ASTKGPSVFPLAPCSRSTSGGTAALGCLVKDYFPEPVTVSWNSGALTSGVHTFPAVLQSSGLYSLSSVVTVPSSSLGTQTYTCNVNHKPSNTKVDKRVELKTPLGDTTHTCPRCPEPKSCDTPPPCPRCPEPKSCDTPPPCPRCPEPKSCDTPPPCPRCPAPELLGGPSVFLFPPKPKDTLMISRTPEVTCVVVDVSHEDPEVQFKWYVDGVEVHNAKTKPREEQYNSTFRVVSVLTVLHQDWLNGKEYKCKVSNKALPAPIEKTISKTKGQPREPQVYTLPPSREEMTKNQVSLTCLVKGFYPSDIAVEWESSGQPENNYNTTPPMLDSDGSFFLYSKLTVDKSRWQQGNIFSCSVMHEALHNRFTQKSLSLSPGK
# of peptides in sample A# ([1]; Sample B2: eluate of BiP-Sepharose contacted with AL amyloidosis patient I plasma): 2
# of peptides in sample A# [1, 3]: 2

B3: V1-3 protein (Fragment) (protein)
chain: QSALTQPRSVSGSPGQSVTISCTGTSSDVGGYNYVSWYQQHPGKAPKLMIYDVSKRPSGVPDRFSGSKSGNTASLTISGLQAEDEADYYCCSYAGSYTFH
# of peptides in sample A# [1, 3]: 2
# of peptides in sample A# [1, 4]: 1

B4: Immunoglobulin heavy constant mu/Full-length cDNA clone CS0DD006YL02 of Neuroblastoma of Homo sapiens (protein, UniProt P01871 1-474, looked up)
Immunoglobulin heavy constant …: GSASAPTLFPLVSCENSPSDTSSVAVGCLAQDFLPDSITFSWKYKNNSDISSTRGFPSVLRGGKYAATSQVLLPSKDVMQGTDEHVVCKVQHPNGNKEKNVPLPVIAELPPKVSVFVPPRDGFFGNPRKSKLICQATGFSPRQIQVSWLREGKQVGSGVTTDQVQAEAKESGPTTYKVTSTLTIKESDWLGQSMFTCRVDHRGLTFQQNASSMCVPDQDTAIRVFAIPPSFASIFLTKSTKLTCLVTDLTTYDSVTISWTRQNGEAVKTHTNISESHPNATFSAVGEASICEDDWNSGERFTCTVTHTDLPSPLKQTISRPKGVALHRPDVYLLPPAREQLNLRESATITCLVTGFSPADVFVQWMQRGQPLSPEKYVTSAPMPEPQAPGRYFAHSILTVSEEEWNTGETYTCVVAHEALPNRVTERTVDKSTEGEVSADEEGFENLWATASTFIVLFLLSLFYSTTVTLFKVK
# of peptides in sample A# [1, 3]: 4
# of peptides in sample A# [1, 4]: 10

B5: complement C4a (protein, UniProt P0C0L4 680-756, looked up)
C4a anaphylatoxin: NVNFQKAINEKLGQYASPTAKRCCQDGVTRLPMMRSCEQRAARVQQPDCREPFLSCCQFAESLRKKSRDKGQAGLQR
modifications: C4a anaphylatoxin
Specific binding to BiP-Sepharose from normal pooled plasma ([1]; compared to AL amyloidosis patient II): specifically bound

B6: Galectin-3-binding protein precursor (protein)
chain: VNDGDMRLADGGATNQGRVEIFYRGQWGTVCDNLWDLTDASVVCRALGFENATQALGRAAFGQGSGPIMLDEVQCTGTEASLADCKSLGWLKSNCRHERDAGVVCTNETRSTHTLDLSRELSEALGQIFDSQRGCDLSISVNVQGEDALGFCGHTVILTANLEAQALWKEPGSNVTMSVDAECVPMVRDLLRYFYSRRIDITLSSVKCFHKLASAYGARQLQGYCASLFAILLPQDPSFQMPLDLYAYAVATGDALLEKLCLQFLAWNFEALTQAEAWPSVPTDLLQLLLPRSDLAVPSELALLKAVDTWSWGERASHEEVEGLVEKIRFPMMLPEELFELQFNLSLYWSHEALFQKKTLQALEFHTVPFQLLARYKGLNLTEDTYKPRIYTSPTWSAFVTDSSWSARKSQLVYQSRRGPLVKYSSDYFQAPSDYRYYPYQSFQTPQHPSFLFQDKRVSWSLVYLPTIQSCWNYGFSCSSDELPVLGLTKSGGSDRTIAYENKALMLCEGLFVADVTDFEGWKAAIPSALDTNSSKSTSSFPCPAGHFNGFRTVIRPFYLTNSSGVD
# of unique peptides ([2]; Sample 1B): 1
# of unique peptides ([2]; Sample 3B): 1

B7: CDNA FLJ90170 fis, clone MAMMA1000370, highly similar to Ig alpha-1 chain C region/Immunoglobulin heavy constant alpha 1 (protein, UniProt P01876 1-398, looked up)
Immunoglobulin heavy constant …: ASPTSPKVFPLSLCSTQPDGNVVIACLVQGFFPQEPLSVTWSESGQGVTARNFPPSQDASGDLYTTSSQLTLPATQCLAGKSVTCHVKHYTNPSQDVTVPCPVPSTPPTPSPSTPPTPSPSCCHPRLSLHRPALEDLLLGSEANLTCTLTGLRDASGVTFTWTPSSGKSAVQGPPERDLCGCYSVSSVLPGCAEPWNHGKTFTCTAAYPESKTPLTATLSKSGNTFRPEVHLLPPPSEELALNELVTLTCLARGFSPKDVLVRWLQGSQELPREKYLTWASRQEPSQGTTTFAVTSILRVAAEDWKKGDTFSCMVGHEALPLAFTQKTIDRLADWQMPPPYVVLDLPQETLEEETPGANLWPTTITFLTLFLLSLFYSTALTVTSVRGPSGNREGPQY
# of peptides in sample A# [1, 3]: 2
# of peptides in sample A# [1, 4]: 17

B8: Apolipoprotein A-IV precursor (protein)
chain: EVSADQVATVMWDYFSQLSNNAKEAVEHLQKSELTQQLNALFQDKLGEVNTYAGDLQKKLVPFATELHERLAKDSEKLKEEIGKELEELRARLLPHANEVSQKIGDNLRELQQRLEPYADQLRTQVSTQAEQLRRQLTPYAQRMERVLRENADSLQASLRPHADELKAKIDQNVEELKGRLTPYADEFKVKIDQTVEELRRSLAPYAQDTQEKLNHQLEGLTFQMKKNAEELKARISASAEELRQRLAPLAEDVRGNLRGNTEGLQKSLAELGGHLDQQVEEFRRRVEPYGENFNKALVQQMEQLRQKLGPHAGDVEGHLSFLEKDLRDKVNSFFSTFKEKESQDKTLSLPELEQQQEQQQEQQQEQVQMLAPLES
# of unique peptides ([2]; Sample 1B): 3

B9: FLJ00385 protein (Fragment), immunoglobulin heavy constant mu (protein)
chain: GSASAPTLFPLVSCENSPSDTSSVAVGCLAQDFLPDSITFSWKYKNNSDISSTRGFPSVLRGGKYAATSQVLLPSKDVMQGTDEHVVCKVQHPNGNKEKNVPLPVIAELPPKVSVFVPPRDGFFGNPRKSKLICQATGFSPRQIQVSWLREGKQVGSGVTTDQVQAEAKESGPTTYKVTSTLTIKESDWLGQSMFTCRVDHRGLTFQQNASSMCVPDQDTAIRVFAIPPSFASIFLTKSTKLTCLVTDLTTYDSVTISWTRQNGEAVKTHTNISESHPNATFSAVGEASICEDDWNSGERFTCTVTHTDLPSPLKQTISRPKGVALHRPDVYLLPPAREQLNLRESATITCLVTGFSPADVFVQWMQRGQPLSPEKYVTSAPMPEPQAPGRYFAHSILTVSEEEWNTGETYTCVVAHEALPNRVTERTVDKSTGKPTLYNVSLVMSDTAGTCY
# of unique peptides ([2]; Sample 1B): 1
# of unique peptides ([2]; Sample 2B): 1
# of unique peptides ([2]; Sample 3B): 2
